Measured values from the RNAGym collection of RNA variant scans (doi:10.1093/molbev/msab373).

B1: Azoarcus group I ribozyme (parent)
chain: GUGCCUUGCGCCGGGAAACCACGCAAGGGAUGGUGUCAAAUUCGGCGAAACCUAAGCGCCCGCCCGGGCGUAUGGCAACGCCGAGCCAAGCUUCGGCGCCUGCGCCGAUGAAGGUGUAGAGACUAGACGGCACCCACCUAAGGCAAACGCUAUGGUGAAGGCAUAGUCCAGGGAGUGGCGAAAGUCACACAAACCGG

Variants of: B1
Test: reverse-splicing fitness (ratio to wild type); higher = more active; in vitro selection; Mg2+ level not given
Outline: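 An in vitro group I ribozyme library with randomized positions was T7-transcribed and gel-purified. In triplicate, 10 pmol RNA in EPPS pH 7.5 was reacted with 50 pmoles of a 30-nt RNA substrate for 1 h at 37 °C across several added MgCl2 levels (1–48 mM), then stopped with EDTA. Products were reverse transcribed from a substrate-complementary primer, PCR-amplified and sequenced (HiSeq 4000). Fitness is a variant's read proportion after selection over that before, normalised to wild type.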

Row | Variant | reverse-splicing fitness
1 | C82G A120C A145U C169A U176A | 0.0121
2 | C82G A120C A145U C169A U176G | 0.00379
3 | C82G A120C A145U C169A U176C | 0.00989
4 | C82G A120C A145G C150G U176C | 0.0168
5 | C82G A120C A145G C150G U176A | 0.0102
6 | C82G A120C A145G C150G U176G | 0.00687
7 | C82G A111U C150A C169A U176C | 0.0206
8 | C82G A111U C150A C169A U176A | 0.0193
9 | C82G A111U C150A C169A U176G | 0.00814
10 | C82G A120C A145U C150U | 0.11
11 | C82G A120C A145U C150G | 0.0201
12 | C82G A120C A145U C150A | 0.0209
13 | C82G A120C A145C C150G U176A | 0.00907
14 | C82G A120C A145C C150G U176G | 0.00422
15 | C82G A120C A145C C150G U176C | 0.0144
16 | C82G A111U C169A U176G | 0.00627
17 | C82G A111U C169A U176C | 0.0203
18 | C82G A111U C169A U176A | 0.0152
19 | C82G A111U A145G C169A U176A | 0.0174
20 | C82G A111U A145G C169A U176C | 0.0263
21 | C82G A111U A145G C169A U176G | 0.00602

Row | Variant | reverse-splicing fitness
22 | C82G A120C A145G C150G C169G U176C | 0.0134
23 | C82G A120C A145G C150G C169G U176G | 0.00667
24 | C82G A120C A145G C150G C169G U176A | 0.0134
25 | C82G A111U C150U C169U U176C | 0.013
26 | C82G A111U C150U C169U U176A | 0.014
27 | C82G A111U C150U C169U U176G | 0.00694
28 | C82G A111U A145U C150G C169U | 0.00956
29 | C82G A111U A145U C150G C169A | 0.00951
30 | C82G A111U A145U C150G C169G | 0.00766
31 | C82G A120C A145G C150U U176A | 0.0566
32 | C82G A120C A145G C150U U176C | 0.0797
33 | C82G A120C A145G C150U U176G | 0.0154
34 | C82G A120C A145G C150U C169U | 0.0243
35 | C82G A120C A145G C150U C169A | 0.0102
36 | C82G A120C A145G C150U C169G | 0.00909
37 | C82G A111U C150G | 0.0227
38 | C82G A111U C150U | 0.192
39 | C82G A111U C150A | 0.0323
40 | C82G A111U A145U C150U C169G U176A | 0.0132
41 | C82G A111U A145U C150U C169G U176C | 0.0142
42 | C82G A111U A145U C150U C169G U176G | 0.00659

Row | Variant | reverse-splicing fitness
43 | C82G A120C A145C C150A | 0.0129
44 | C82G A120C A145C C150G | 0.0227
45 | C82G A120C A145C C150U | 0.0403
46 | C82G A111U C169G U176G | 0.00614
47 | C82G A111U C169G U176C | 0.0227
48 | C82G A111U C169G U176A | 0.0157
49 | C82G A111U A145U C150G C169A U176G | 0.00706
50 | C82G A111U A145U C150G C169A U176C | 0.0124
51 | C82G A111U A145U C150G C169A U176A | 0.0117
52 | C82G A111U C150A C169U U176A | 0.0148
53 | C82G A111U C150A C169U U176C | 0.0161
54 | C82G A111U C150A C169U U176G | 0.00776
55 | C82G A120C A145C C169U U176G | 0.00352
56 | C82G A120C A145C C169U U176A | 0.0152
57 | C82G A120C A145C C169U U176C | 0.0142
58 | C82G A120C A145U C150A C169A U176A | 0.0178
59 | C82G A120C A145U C150A C169A U176G | 0.00421
60 | C82G A120C A145U C150A C169A U176C | 0.0107
61 | C82G A120C A145U C150A C169G U176A | 0.014
62 | C82G A120C A145U C150A C169G U176C | 0.0161
63 | C82G A120C A145U C150A C169G U176G | 0.00461

Row | Variant | reverse-splicing fitness
64 | C82G A111U C150G U176G | 0.0043
65 | C82G A111U C150G U176C | 0.0207
66 | C82G A111U C150G U176A | 0.01
67 | C82G A111U A145U C150A U176G | 0.0115
68 | C82G A111U A145U C150A U176A | 0.0235
69 | C82G A111U A145U C150A U176C | 0.0315
70 | C82G A111U A145G C150U C169U U176C | 0.0146
71 | C82G A111U A145G C150U C169U U176A | 0.0152
72 | C82G A111U A145G C150U C169U U176G | 0.00638
73 | C82G A111U A145G C169U | 0.0131
74 | C82G A111U A145G C169A | 0.0087
75 | C82G A111U A145G C169G | 0.00953
76 | C82G A120C A145U C150U U176C | 0.0672
77 | C82G A120C A145U C150U U176A | 0.0489
78 | C82G A120C A145U C150U U176G | 0.0119
79 | C82G A111U A145G U176G | 0.061
80 | C82G A111U A145G U176A | 0.197
81 | C82G A111U A145G U176C | 0.244
82 | C82G A120C A145U | 0.21
83 | C82G A120C A145G | 0.21
